In PMC12524584, “Structures, Interactions, and Antimicrobial Activity of the Shortest Thanatin Peptide from Anasa tristis” (International Journal of Molecular Sciences, 2025):
Bridges are numbered along the chain shown (N, C = ends). Where no end group is shown, it is not given here.

Target: T1, LptAm of Klebsiella pneumoniae (truncated but functional variant of the LPS transport periplasmic protein … (Klebsiella pneumoniae, UniProt A0A377YZM8 28-159, 15N-labeled))
T1 construct: LptA, periplasmic LPS transport protein of Klebsiella pneumoniae, amino acids 28-159 (LptAm); synthetic gene in pET24a(+); also called 15N-LptAm; source: E. coli BL21, purified (Ni-NTA, size-exclusion chromatography), 15N-labeled in M9 minimal medium
T1 sequence: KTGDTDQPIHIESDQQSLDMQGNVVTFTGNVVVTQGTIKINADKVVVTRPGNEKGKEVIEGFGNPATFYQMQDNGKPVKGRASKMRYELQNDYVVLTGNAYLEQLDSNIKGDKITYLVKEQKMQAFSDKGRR
Experiment: NMR titration; 15N-1H HSQC of 15N-LptAm free and with Ana-thanatin at protein:peptide molar ratios 1:1 and 1:2; 298 K
Conditions: both partners purified

B1: Ana-thanatin (16-residue thanatin from Anasa tristis) (peptide)
peptide: VPIYYCNRKTGKCRRL
modifications: disulfide 6-13 (inferred)
notes: thanatin of the squash bug Anasa tristis, 16 residues, V1-L16; Single disulfide-bonded beta-hairpin peptide; the disulfide would join C6 and C13, the only two Cys; also called Anasa tristis thanatin; Ana-thanatin peptide; source: synthetic peptide (chemically synthesized by GenScript)
stoichiometry N: 1
